# Results published in patent US20220062341A1 (KIRIN, published 2022).
# Biological target: CD3 subunits (CD3E, CD3G, CD3D, CD3Z) (human, UniProt P07766 23-207; P09693 23-182; P04234 22-171; P20963 22-164)
# Experiment: cell-based or functional assay
# CD3 subunits (CD3E, CD3G, CD3D, CD3Z), sequence (P07766 23-207, chain 1 of 4): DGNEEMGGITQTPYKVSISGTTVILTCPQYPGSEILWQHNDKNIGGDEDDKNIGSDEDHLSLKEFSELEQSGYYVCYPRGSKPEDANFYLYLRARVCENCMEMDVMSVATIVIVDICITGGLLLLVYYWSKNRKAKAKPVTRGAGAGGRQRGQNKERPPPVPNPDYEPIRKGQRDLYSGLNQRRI
# CD3 subunits (CD3E, CD3G, CD3D, CD3Z), sequence (P09693 23-182, chain 2 of 4): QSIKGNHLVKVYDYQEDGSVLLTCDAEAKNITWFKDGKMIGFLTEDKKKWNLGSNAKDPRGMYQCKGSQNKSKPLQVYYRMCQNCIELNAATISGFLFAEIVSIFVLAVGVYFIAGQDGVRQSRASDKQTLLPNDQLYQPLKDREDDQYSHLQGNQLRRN
# CD3 subunits (CD3E, CD3G, CD3D, CD3Z), sequence (P04234 22-171, chain 3 of 4): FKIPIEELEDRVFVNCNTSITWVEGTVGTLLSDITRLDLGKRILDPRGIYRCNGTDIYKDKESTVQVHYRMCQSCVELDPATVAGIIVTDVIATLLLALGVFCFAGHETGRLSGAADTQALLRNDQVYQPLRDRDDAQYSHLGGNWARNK
# CD3 subunits (CD3E, CD3G, CD3D, CD3Z), sequence (P20963 22-164, chain 4 of 4): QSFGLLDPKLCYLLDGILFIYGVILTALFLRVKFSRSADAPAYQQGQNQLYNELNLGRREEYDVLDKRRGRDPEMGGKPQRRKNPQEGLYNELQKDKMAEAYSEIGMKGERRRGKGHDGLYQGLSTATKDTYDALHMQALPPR
row,Binder,"CD3-recruiting activity (CD3-positive proportion, N=3), CD3-stably expressing 293T cells"
1,modified TCR of the combination of βCR and αCR (TCR) TCR alpha: NIQNPDPAVYQLRDSKSSDKSVCLFTDFDSQTNVSQSKDSDVYITDKTVLDMRSMDFKSNSAVAWSNKSDFACANAFNNSIIPEDTFFPSPESSCDVKLVEKSFETDTNLNFQNLSVIGFRILLLKVAGFNLLMTLRLWSS TCR beta: EDLKNVFPPEVAVFEPSEAEISHTQKATLVCLATGFYPDHVELSWWVNGKEVHSGVSTDPQPLKEQPALNDSRYCLSSRLRVSATFWQNPRNHFRCQVQFYGLSENDEWTQDRAKPVTQIVSAEAWGRADCGFTSESYQQGVLSATILYEILLGKATLYAVLVSALVLMAMVKRKDSRG,≥ 80%
2,modified TCR of the combination of βCR and α2 (TCR) TCR alpha: SVCLFTDFDSQTNVSQSKDSDVYITDKTVLDMRSMDFKSNSAVAWSNKSDFACANAFNNSIIPEDTFFPSPESSCDVKLVEKSFETDTNLNFQNLSVIGFRILLLKVAGFNLLMTLRLWSS TCR beta: EDLKNVFPPEVAVFEPSEAEISHTQKATLVCLATGFYPDHVELSWWVNGKEVHSGVSTDPQPLKEQPALNDSRYCLSSRLRVSATFWQNPRNHFRCQVQFYGLSENDEWTQDRAKPVTQIVSAEAWGRADCGFTSESYQQGVLSATILYEILLGKATLYAVLVSALVLMAMVKRKDSRG,≥ 80%
3,modified TCR of the combination of βCR and α4 (TCR) TCR alpha: DVYITDKTVLDMRSMDFKSNSAVAWSNKSDFACANAFNNSIIPEDTFFPSPESSCDVKLVEKSFETDTNLNFQNLSVIGFRILLLKVAGFNLLMTLRLWSS TCR beta: EDLKNVFPPEVAVFEPSEAEISHTQKATLVCLATGFYPDHVELSWWVNGKEVHSGVSTDPQPLKEQPALNDSRYCLSSRLRVSATFWQNPRNHFRCQVQFYGLSENDEWTQDRAKPVTQIVSAEAWGRADCGFTSESYQQGVLSATILYEILLGKATLYAVLVSALVLMAMVKRKDSRG,≥ 80%
4,modified TCR of the combination of βCR and α3 (TCR) TCR alpha: NVSQSKDSDVYITDKTVLDMRSMDFKSNSAVAWSNKSDFACANAFNNSIIPEDTFFPSPESSCDVKLVEKSFETDTNLNFQNLSVIGFRILLLKVAGFNLLMTLRLWSS TCR beta: EDLKNVFPPEVAVFEPSEAEISHTQKATLVCLATGFYPDHVELSWWVNGKEVHSGVSTDPQPLKEQPALNDSRYCLSSRLRVSATFWQNPRNHFRCQVQFYGLSENDEWTQDRAKPVTQIVSAEAWGRADCGFTSESYQQGVLSATILYEILLGKATLYAVLVSALVLMAMVKRKDSRG,≥ 80%
5,modified TCR of the combination of βCR and α1 (TCR) TCR alpha: YQLRDSKSSDKSVCLFTDFDSQTNVSQSKDSDVYITDKTVLDMRSMDFKSNSAVAWSNKSDFACANAFNNSIIPEDTFFPSPESSCDVKLVEKSFETDTNLNFQNLSVIGFRILLLKVAGFNLLMTLRLWSS TCR beta: EDLKNVFPPEVAVFEPSEAEISHTQKATLVCLATGFYPDHVELSWWVNGKEVHSGVSTDPQPLKEQPALNDSRYCLSSRLRVSATFWQNPRNHFRCQVQFYGLSENDEWTQDRAKPVTQIVSAEAWGRADCGFTSESYQQGVLSATILYEILLGKATLYAVLVSALVLMAMVKRKDSRG,≥ 80%
6,modified TCR of the combination of βCR and α6 (TCR) TCR alpha: KSNSAVAWSNKSDFACANAFNNSIIPEDTFFPSPESSCDVKLVEKSFETDTNLNFQNLSVIGFRILLLKVAGFNLLMTLRLWSS TCR beta: EDLKNVFPPEVAVFEPSEAEISHTQKATLVCLATGFYPDHVELSWWVNGKEVHSGVSTDPQPLKEQPALNDSRYCLSSRLRVSATFWQNPRNHFRCQVQFYGLSENDEWTQDRAKPVTQIVSAEAWGRADCGFTSESYQQGVLSATILYEILLGKATLYAVLVSALVLMAMVKRKDSRG,≥ 80%
7,modified TCR of the combination of βCR and α10 (TCR) TCR alpha: IPEDTFFPSPESSCDVKLVEKSFETDTNLNFQNLSVIGFRILLLKVAGFNLLMTLRLWSS TCR beta: EDLKNVFPPEVAVFEPSEAEISHTQKATLVCLATGFYPDHVELSWWVNGKEVHSGVSTDPQPLKEQPALNDSRYCLSSRLRVSATFWQNPRNHFRCQVQFYGLSENDEWTQDRAKPVTQIVSAEAWGRADCGFTSESYQQGVLSATILYEILLGKATLYAVLVSALVLMAMVKRKDSRG,≥ 80%
8,modified TCR consisting of β1 and αCR (TCR) TCR alpha: NIQNPDPAVYQLRDSKSSDKSVCLFTDFDSQTNVSQSKDSDVYITDKTVLDMRSMDFKSNSAVAWSNKSDFACANAFNNSIIPEDTFFPSPESSCDVKLVEKSFETDTNLNFQNLSVIGFRILLLKVAGFNLLMTLRLWSS TCR beta: SEAEISHTQKATLVCLATGFYPDHVELSWWVNGKEVHSGVSTDPQPLKEQPALNDSRYCLSSRLRVSATFWQNPRNHFRCQVQFYGLSENDEWTQDRAKPVTQIVSAEAWGRADCGFTSESYQQGVLSATILYEILLGKATLYAVLVSALVLMAMVKRKDSRG,≥ 20%
9,modified TCR of the combination of βCR and α5 (TCR) TCR alpha: LDMRSMDFKSNSAVAWSNKSDFACANAFNNSIIPEDTFFPSPESSCDVKLVEKSFETDTNLNFQNLSVIGFRILLLKVAGFNLLMTLRLWSS TCR beta: EDLKNVFPPEVAVFEPSEAEISHTQKATLVCLATGFYPDHVELSWWVNGKEVHSGVSTDPQPLKEQPALNDSRYCLSSRLRVSATFWQNPRNHFRCQVQFYGLSENDEWTQDRAKPVTQIVSAEAWGRADCGFTSESYQQGVLSATILYEILLGKATLYAVLVSALVLMAMVKRKDSRG,≥ 80%
10,modified TCR of the combination of βCR and α8 (TCR) TCR alpha: CANAFNNSIIPEDTFFPSPESSCDVKLVEKSFETDTNLNFQNLSVIGFRILLLKVAGFNLLMTLRLWSS TCR beta: EDLKNVFPPEVAVFEPSEAEISHTQKATLVCLATGFYPDHVELSWWVNGKEVHSGVSTDPQPLKEQPALNDSRYCLSSRLRVSATFWQNPRNHFRCQVQFYGLSENDEWTQDRAKPVTQIVSAEAWGRADCGFTSESYQQGVLSATILYEILLGKATLYAVLVSALVLMAMVKRKDSRG,≥ 80%
11,modified TCR of the combination of βCR and α9 (TCR) TCR alpha: FNNSIIPEDTFFPSPESSCDVKLVEKSFETDTNLNFQNLSVIGFRILLLKVAGFNLLMTLRLWSS TCR beta: EDLKNVFPPEVAVFEPSEAEISHTQKATLVCLATGFYPDHVELSWWVNGKEVHSGVSTDPQPLKEQPALNDSRYCLSSRLRVSATFWQNPRNHFRCQVQFYGLSENDEWTQDRAKPVTQIVSAEAWGRADCGFTSESYQQGVLSATILYEILLGKATLYAVLVSALVLMAMVKRKDSRG,≥ 80%
12,modified TCR of the combination of βCR and α7 (TCR) TCR alpha: SNKSDFACANAFNNSIIPEDTFFPSPESSCDVKLVEKSFETDTNLNFQNLSVIGFRILLLKVAGFNLLMTLRLWSS TCR beta: EDLKNVFPPEVAVFEPSEAEISHTQKATLVCLATGFYPDHVELSWWVNGKEVHSGVSTDPQPLKEQPALNDSRYCLSSRLRVSATFWQNPRNHFRCQVQFYGLSENDEWTQDRAKPVTQIVSAEAWGRADCGFTSESYQQGVLSATILYEILLGKATLYAVLVSALVLMAMVKRKDSRG,≥ 80%
